Assay results published in doi:10.1101/2020.09.22.308395.

Biological target: UDP-GlcNAc 4-epimerase (Gne) from Campylobacter jejuni (Campylobacter jejuni)
Test: SEC-MALLS

Substance: UDP-GlcNAc 4-epimerase (Gne) from Campylobacter jejuni (enzyme)
- stoichiometry N: 2
